Data from patent US20170183404A1.

Columns and labels:
[1] = biological target: Purified Mor1 (Example 9) (Mus musculus (Mouse)) (UniProt P42866); assay: method not told at that place (Ki; presumably radioligand displacement)
[2] = biological target: Purified Mor1 (Example 9) (Mus musculus (Mouse)) (UniProt P42866); assay: cell-based or functional assay

Chain of Purified Mor1 (Example 9) (Mus musculus (Mouse)) (P42866 52-358, tags or fused parts left off): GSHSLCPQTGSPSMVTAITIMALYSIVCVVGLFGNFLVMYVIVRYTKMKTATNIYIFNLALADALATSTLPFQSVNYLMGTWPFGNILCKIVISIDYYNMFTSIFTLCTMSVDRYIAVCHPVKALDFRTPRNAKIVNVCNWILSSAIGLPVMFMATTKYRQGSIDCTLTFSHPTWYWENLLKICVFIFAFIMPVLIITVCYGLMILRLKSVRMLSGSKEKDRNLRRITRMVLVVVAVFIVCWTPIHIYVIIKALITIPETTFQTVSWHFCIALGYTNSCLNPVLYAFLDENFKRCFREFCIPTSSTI

Row | Binder | Ki [1] [nM] | enhancement of BU72 affinity for Mor1 in HDL particles [2] [fold] | inhibition constant (Ki) of agonist BU72 in [3H]-diprenorphine competition on Mor1 in HDL particles, in presence of 5 µM XA8639 [2] [nM]
1 | XA8635 (VHH) VHH: QVQLVESGGGLVQAGGSLRLSCAASGSISSISTMGWYRQAPGNERELVAAITSGGSTNYADSVKGRFTISRDNAKNTVYLQMNSLKPEDTAVYYCNFKYYSGSYFYKSEYDYWGQGTQVTVSS | 12 | – | –
2 | XA8639 (VHH) VHH: QVQLVESGGGLVRPGGSLRLSCVDSERTSYPMGWFRRAPGKEREFVASITWSGIDPTYADSVADRFTTSRDVANNTLYLQMNSLKHEDTAVYYCAARAPVGQSSSPYDYDYWGQGTQVTVSS | – | 176 | 0.0085
